Laboratory results taken from patent publication US7803377B2, “Anti-DLL4 antibodies and methods using same” (Genentech, Inc., priority 2006, dated 2010).

B1: YW26.14: affinity matured anti-DLL4 antibody; HVR-H1/H2/H3 SEQ ID NO:2, 3, 9; HVR-L1/L2/L3 SEQ ID NO:10, 11, 14 (antibody, V domains shown)
VH: EVQLVESGGGLVQPGGSLRLSCAASGFSFRDNWISWVRQAPGKGLEWVGVINPNSGSTDYADSVKGRFTISADTSKNTAYLQMNSLRAEDTAVYYCARDNFGGYFDYWGQGTLVTVSS
VL: DIQMTQSPSSLSASVGDRVTITCRASQDVSTAVAWYQQKPGKAPKLLIYSASFLYSGVPSRFSGSGSGTDFTLTISSLQPEDFATYYCQQSVNGPATFGQGTKVEIK
B2: YW26.34: affinity matured anti-DLL4 antibody; HVR-H1/H2/H3 SEQ ID NO:1, 6, 9; HVR-L1/L2/L3 SEQ ID NO:10, 11, 16 (antibody, V domains shown)
VH: EVQLVESGGGLVQPGGSLRLSCAASGFTFTDNWISWVRQAPGKGLEWVGLINPTSGSTIYADSVKGRFTISADTSKNTAYLQMNSLRAEDTAVYYCARDNFGGYFDYWGQGTLVTVSS
VL: DIQMTQSPSSLSASVGDRVTITCRASQDVSTAVAWYQQKPGKAPKLLIYSASFLYSGVPSRFSGSGSGTDFTLTISSLQPEDFATYYCQQSYTGPSTFGQGTKVEIK
B3: immobilized DLL4: immobilized C-terminal His-tagged human DLL4 (amino acids 1-404) used to activate Notch in HUVECs (protein)
chain: GSGVFQLQLQEFINERGVLASGRPCEPGCRTFFRVCLKHFQAVVSPGPCTFGTVSTPVLGTNSFAVRDDSSGGGRNPLQLPFNFTWPGTFSLIIEAWHAPGDDLRPEALPPDALISKIAIQGSLAVGQNWLLDEQTSTLTRLRYSYRVICSDNYYGDNCSRLCKKRNDHFGHYVCQPDGNLSCLPGWTGEYCQQPICLSGCHEQNGYCSKPAECLCRPGWQGRLCNECIPHNGCRHGTCSTPWQCTCDEGWGGLFCDQDLNYCTHHSPCKNGATCSNSGQRSYTCTCRPGYTGVDCELELSECDSNPCRNGGSCKDQEDGYHCLCPPGYYGLHCEHSTLSCADSPCFNGGSCRERNQGANYACECPPNFTGSNCEKKVD
modifications: left off: small tags and cut ends

What was measured:
human Delta4 (ECD5.5) = target: T1, human Delta4 (ECD5.5) (Homo sapiens, UniProt Q9NR61); assay: Surface plasmon resonance (BIAcore-3000) binding affinity and kinetics; conditions: human DLL4-His injected over coupled antibody, 25° C.
T1 construct: DLL4-His (C-terminal His-tagged human DLL4, amino acid 1-404); His (C)
Protocol: (§1) To determine the binding affinity of the anti-DLL4 Mabs, surface plasmon resonance (SRP) measurement with a BIAcore™-3000 was used (BIAcore, Inc., Piscataway, N.J.). Briefly, carboxymethylated dextran biosensor chips (CM5, BIAcore Inc.) were activated with N-ethyl-N′-(3-dimethylaminopropyl)-carbodiimide hydrochloride (EDC) and N-hydroxysuccinimide (NHS) according to the supplier's instructions. Anti-DLL4 antibody was diluted with 10 mM sodium acetate, pH 4.8, into 5 μg/ml before injection at a flow rate of 5 μl/minute to achieve approximately 500 response units (RU) of coupled antibody. Next, IM ethanolamine was injected to block unreacted groups. For kinetics measurements, two-fold serial dilutions of either human or murine DLL4-His molecules (0.7 nM to 500 nM) were injected in PBS with 0.05% Tween™ 20 at 25° C. at a flow rate of 25 μl/min. Association rates (kon) and dissociation rates (koff) were calculated using a simple one-to-one Langmuir binding model (BIAcore Evaluation Software version 3.2). The equilibrium dissociation constant (Kd) was calculated as the ratio koff/kon.

murine Delta4 (ECD5.5) = target: T2, murine Delta4 (ECD5.5) (Mus musculus, UniProt Q9JI71); assay: as above; conditions: murine DLL4-His injected over coupled antibody, 25° C.
T2 construct: murine Delta4 (ECD5.5); His
T2 sequence (Q9JI71 27-405 limits assumed): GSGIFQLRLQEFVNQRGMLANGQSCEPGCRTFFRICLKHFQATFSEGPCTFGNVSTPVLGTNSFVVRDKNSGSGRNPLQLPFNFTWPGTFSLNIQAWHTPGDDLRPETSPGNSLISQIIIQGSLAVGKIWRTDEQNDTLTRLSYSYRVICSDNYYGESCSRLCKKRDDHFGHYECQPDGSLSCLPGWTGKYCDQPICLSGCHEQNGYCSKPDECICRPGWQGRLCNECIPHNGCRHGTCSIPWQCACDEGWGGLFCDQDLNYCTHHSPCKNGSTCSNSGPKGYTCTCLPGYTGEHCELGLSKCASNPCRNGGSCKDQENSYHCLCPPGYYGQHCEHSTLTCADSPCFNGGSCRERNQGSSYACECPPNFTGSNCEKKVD
Protocol: as §1

HUVEC = HUVEC proliferation on Notch activation by immobilized DLL4; assay type: cell-based, human; conditions: Notch activation by immobilized DLL4 protein
VEGFR2 = assay: Real-time quantitative RT-PCR of VEGFR2 expression in HUVECs; assay type: cell-based, human; conditions: 2-D culture of HUVECs (36 hr)
Protocol: RNA extraction and Real-time quantitative RT-PCR. Extraction of total RNA from HUVECs in 2-D culture was done using RNeasy® Mini Kit (Qiagen) as per instructions of the manufacturer. To extract total RNA from HUVECs growing in fibrin gels, fibrin gels were treated with 10× trypsin-EDTA (Gibco) for 5 min to remove the top layer fibroblasts, followed by neutralization with 10% FBS in PBS. The gel clots were then removed from tissue culture wells and subjected to centrifugation (10K for 5 min) in microtubes to remove excessive fluid. The resulting gel “pellets” were lysed with lysis buffer (RNeasy® Mini Kit), and further processed as with HUVECs in 2-D culture. The quality of RNA was assessed using RNA 6000 Nano Chips and the Agilent 2100 Bioanalyzer (Agilent Technologies). Real-time quantitative RT-PCR reactions were done in triplicate using 7500 Real Time PCR System (Applied Biosystems). Human GAPDH was used as reference gene for normalization. The expression levels are expressed as the mean (±SEM) fold mRNA changes relative to control from 3 separate determinations. The forward and reverse primer and probe sequences for VEGFR2, TGFβ2 and GAPDH were as follows.
Therefore, while VEGF can act upstream of DLL4/Notch pathway, DLL4/Notch is capable of fine-tuning the response through negatively regulating VEGFR2 expression.

| Molecule | koff/10^−4 (human Delta4 (ECD5.5)) | kon/10^5 (human Delta4 (ECD5.5)) | koff10^−4 (murine Delta4 (ECD5.5)) | kon/10^5 (murine Delta4 (ECD5.5)) | HUVEC proliferation / growth (HUVEC) | VEGFR2 expression on Notch activation (VEGFR2) |
| --- | --- | --- | --- | --- | --- | --- |
| B1 | 0.66 10^−4 | 1.8 10^5 | 0.73 10^−4 | 3.3 10^5 |  |  |
| B2 | 0.67 10^−4 | 1.9 10^5 | 0.65 10^−4 | 3.6 10^5 |  |  |
| B3 |  |  |  |  | significant growth inhibition | suppressed the expression of VEGFR2 |
